Results taken from the DeepSol protein solubility set.

assay: soluble on expression in E. coli; label from the status in PepcDB or PDB records

| Sequence | soluble on expression in E. coli |
| --- | --- |
| MSAPPTAPADPSTGSDRPKRSVPPPRHPTHAVDRAFLDLERRRPEVRWDAGGVAYLSGPPPSLADLRAYVAFRLGELPLLTSRVTGGRRPGWQPSEDFPVDRHVYEVVADGPADWDTALHSALNAPFAPGAYWGVWLIHGHEPDAYALCYRFLHACQDGSAAAMTFRAMLGDGEPSARPLPGGSGVFGVPRRFGAAVALATRFLARTFTVRRHRPDPAFAPAGERRLWRGRVPVDTLRLIGAGRGGSAHDAHLAALAGALSVWAARSGVPLPRVTAVLPVDARRADEEQTWGNRCFALPVDLPVGPAPGRPDGSPDEEAPLRRLDQIMAVTRKLRGDTWRQAVQDLVRYMPDRPTAWYLRRMLSPRVTNVMATSMPLAEKGSLGETRVTGTALLPLLVPGHLCGVGLSFFGDWAEVSFVADRALPLGELLPELWEQAVRELAESVQRGLEHHHHHH | not soluble |
| MNVTYLHDEDLDFLQHCSEEQLADFARLLTHNEKGKARLSSVLSHNELFKAMEGHPEQHRRNWQLIAGEFQHYGGDSIANKLRGHGKQYRAILLDVAKRLKLKADKSMSTFEIEQQLLEHFLRHTWQKMDAAHKQEFLQAVDAKVSELEELLPLLMKDRSLAKGVSHLLSTQLTRILRTHAAMSILGHGLLRGAGLGGPVGAALNGVKAMSGSAYRVTIPAVLQIACLRRMMAAVQA | not soluble |
| MGSDKIHHHHHHMNDLLKVIHNRASIRKFTGEHIPESDMEQIMSAAQSVPSINNYQPVTYVEITDQSVKDQAADLVNMPYVASSDRFFVILADYHKLLVGFEGKEREIAQTNLSAYNIAEGAALSAGVSAYAAIIAAESLGYGGVTMAGPVRAFQIYENYLDLPEMTKVVFTLALGVPDGHPGVKPKLPLSTFWQKDSYDTNVIDQGIADYNKTMRSYYESRNIDENWTEHNKKALTKAKDTTALTEYAKRKGFNLK | not soluble |
| MGSDKIHHHHHHMLKIELLESFIAVAECGNMSKAADKVCRTQSTLSLQIKKLEEVVGQSLLLRDNKGTTLTESGSTLLNYAYKMMQLNSQAIHDLKDCQNREIIRLGVPTDYIKFYLNSCLLEFIREFTCIELVIDTDVSGNLFKRLQQGEFDLIVATHWQAPVNGELLFSRRFHWAAAKNGQAHKRSTVPMALYPENCPIRAQVFANHQLSMRPINVLLSTPSPQALCMAVENDLAIAPIAEFRTNEHMQILDPHEHGLPPLPIFNESLYLNPETQTEATMQLITLIKANVEHLSDTID | not soluble |
| MNSRQQTILQMVIDQGQVSVTDLAKATGVSEVTIRQDLNTLEKLSYLRRAHGFAVSLDSDDVETRMMSNYTLKRELAEFAASLVQPGETIFIENGSSNALLARTLGEQKKNVTIITVSSYIAHLLKDAPCEVILLGGVYQKKSESMVGPLTRQCIQQVHFSKAFIGIDGWQPETGFTGRDMMRTDVVNAVLEKECEAIVLTDSSKFGAVHSYSIGPVERFNRVITDSKIRASDLMHLEHSKLTIHVVDI | not soluble |
| MEAHNVEISTRLTPEMKNQGTIELLYKALQQGDTSTVTKVVASDVEWWFHGPHDCQHMMRLLTGEPPRQVSFRFEPSSVQVVVPGHDCVIAEGWEGSRVYWVHVWKLKDGVVTELREYFNTWLTVTDYSLGAVGWDMGRCTVWESVPRDLARGSLPSLLLAI | soluble |
| MKIAIIGAGIGGLTAGALLLEKGHDVSIFERQSNISEVGAGIGIGDNVIKKLGKHDLAKGIKNAGQNLSAMNVLDDKGNILSAVKLKEATLNVTLARQTLIELIQSYVNPQCIYTDHDVIKVENVEQHTMVHFSNHASQSFDLCIGSDGLHSVVRQAIHQNAKILYQGYTCFRGLVDDADLHNIDIASEYWGKRGRVGIVPLINNQAYWFITINASEKDPKYQTFEKPHLQAYFNNYPEPVRQILDKQSETGIQKHDLYDMKPLKSFVNQRILLLGDAAHATTPNMGQGAGQAMEDAIVLVNCLAEYDIEKALKRYDKLRVKHTAKVIKRSRKIGKIAQKDNKLVISLRNGVMKRTPNRLLSGQTKFLYKAKHKLEHHHHHH | not soluble |
| MSLQLSKAAEMCYEITNSYLHIDQKSQIIASTQEAIRLTRKYLLSEIFVRWSPLNGEISFSYNGGKDCQVLLLLYLSCLWEYFFIKAQNSQFDFEFQSFPMQRLPTVFIDQEETFPTLENFVLETSERYCLSLYESQRQSGASVNMADAFRDFIKIYPETEAIVIGIRHTDPFGEALKPIQRTDSNWPDFMRLQPLLHWDLTNIWSFLLYSNEPICGLYGKGFTSIGGINNSLPNPHLRKDSNNPALHFEWEIIHAFGKDAEGERSSAINTSPISVVDKERFSKYHDNYYPGWYLVDDTLERAGRIKNEGHHHHHH | soluble |
